Where two headings read alike, the source gives them in different places.
Tests used:
Test in all cases: flow cytometry: scFv phage supernatant on peptide-pulsed SigM5 cells (HLA-A1+), median fluorescence intensity
RAS Q61WT[55-64] pHLA-A1 [1] = target: T1, RAS Q61WT[55-64] pHLA-A1 (human)
T1 construct: also called Q61WT pHLA-A1; H/K/N RAS WT(55-64) peptide on HLA-A1

RAS Q61WT[55-64] pHLA-A1 [2] = target: T1, RAS Q61WT[55-64] pHLA-A1; remark: listed apart in the source
Method: Cells were stained with 50 μL of phage supernatant per 50 μL of cells, washed and stained with rabbit anti-M13 antibody, then washed and stained with anti-Rabbit-PE antibody. Cells were stained with a live/dead Near-IR dye, washed, and analyzed by an iQue Screener (IntelliCyt, Albuquerque, N. Mex.).
Monoclonal phage were grown and sequenced as described above. Phage supernatant from representative wells of each unique clone was selected for flow cytometry analysis. In each well of a deep 96-well 2 mL plate, 50 μL of monoclonal phage was incubated with 2.5×10⁵ peptide-pulsed SigM5 cells in 50 μL of stain buffer. Plates were incubated on ice for 1 hour, followed by washing with 1 mL of stain buffer. Cells were then stained with 1 μg of rabbit anti-M13 antibody (Novus Biologicals), washed, stained with anti-rabbit-PE (BioLegend), incubated with an additional 100 μL of LIVE/DEAD Fixable Near-IR dye diluted 1:1000 in PBS for 10 minutes at RT in the dark, followed by washing in stain buffer before analysis. Stained cells were analyzed using an Intellicyt iQue3 flow cytometer (Sartorius, Gottingen, Germany).

RAS Q61WT[55-64] pHLA-A1 [3] = target: T1, RAS Q61WT[55-64] pHLA-A1; remark: listed apart in the source

Row | Binder | binding result (RAS Q61WT[55-64] pHLA-A1 [1]) | binding result (RAS Q61WT[55-64] pHLA-A1 [2]) | further results
1 | H/K/N RAS Q61L_A1_cl8 (scFv) scFv: DIQMTQSPSSLSASVGDRVTITCRASQDVNTAVAWYQQKPGKAPKLLIYSASFLYSGVPSRFSGSRSGTDFTLTISSLQPEDFATYYCQQSYSSGPVTFGQGTKVEIKRTGGGSGGGGSGGGASEVQLVESGGGLVQPGGSLRLSCAASGFNFSYGGIHWVRQAPGKGLEWVAMIYPLTGYTNYADSVKGRFTISADTSKNTAYLQMNSLRAEDTAVYYCSRDYYYSVDVWGQGTLVTVSS | no binding |  | 
2 | H/K/N RAS Q61L_A1_cl6 (scFv) scFv: DIQMTQSPSSLSASVGDRVTITCRASQDVNTAVAWYQQKPGKAPKLLIYSASFLYSGVPSRFSGSRSGTDFTLTISSLQPEDFATYYCQQSYYSPWTFGQGTKVEIKRTGGGSGGGGSGGGASEVQLVESGGGLVQPGGSLRLSCAASGFNISYSNIHWVRQAPGKGLEWVAMIYGTRGGTYYADSVKGRFTISADTSKNTAYLQMNSLRAEDTAVYYCSRYYSYAMDYWGQGTLVTVSS | no binding |  | 
3 | H/R/N RAS Q61R_A1_cl2 (scFv) scFv: DIQMTQSPSSLSASVGDRVTITCRASQDVNTAVAWYQQKPGKAPKLLIYSASFLYSGVPSRFSGSRSGTDFTLTISSLQPEDFATYYCQQYWYYYPITFGQGTKVEIKRTGGGSGGGGSGGGASEVQLVESGGGLVQPGGSLRLSCAASGFNIYSYDMHWVRQAPGKGLEWVAISPGGSYTYYADSVKGRFTISADTSKNTAYLQMNSLRAEDTAVYYCSRSAFTGYFDVWGQGTLVTVSS |  | no binding | 
4 | H/K/N RAS Q61H_A1_cl9 (scFv) scFv: DIQMTQSPSSLSASVGDRVTITCRASQDVNTAVAWYQQKPGKAPKLLIYSASFLYSGVPSRFSGSRSGTDFTLTISSLQPEDFATYYCQQGEYSPLTFGQGTKVEIKRTGGGSGGGGSGGGASEVQLVESGGGLVQPGGSLRLSCAASGFNVFESAMHWVRQAPGKGLEWVAWVYGSYDYTYYADSVKGRFTISADTSKNTAYLQMNSLRAEDTAVYYCSRSFAYFQAMDYWGQGTLVTVSS |  |  | binding result (RAS Q61WT[55-64] pHLA-A1 [3]): no binding
5 | H/K/N RAS Q61L_A1_cl7 (scFv) scFv: DIQMTQSPSSLSASVGDRVTITCRASQDVNTAVAWYQQKPGKAPKLLIYSASFLYSGVPSRFSGSRSGTDFTLTISSLQPEDFATYYCQQAYYPPWTFGQGTKVEIKRTGGGSGGGGSGGGASEVQLVESGGGLVQPGGSLRLSCAASGFNVSRWAMHWVRQAPGKGLEWVARVYPSGYLTYYADSVKGRFTISADTSKNTAYLQMNSLRAEDTAVYYCSRNMQSYMDYWGQGTLVTVSS | no binding |  | 
6 | H/R/N RAS Q61R_A1_cl3 (scFv) scFv: DIQMTQSPSSLSASVGDRVTITCRASQDVNTAVAWYQQKPGKAPKLLIYSASFLYSGVPSRFSGSRSGTDFTLTISSLQPEDFATYYCQQSYYAPITFGQGTKVEIKRTGGGSGGGGSGGGASEVQLVESGGGLVQPGGSLRLSCAASGFNVQWSHMHWVRQAPGKGLEWVARLSPPSGYTNYADSVKGRFTISADTSKNTAYLQMNSLRAEDTAVYYCSRLILSKGGYGWAMDYWGQGTLVTVSS |  | no binding | 
7 | H/R/N RAS Q61R_A1_cl13 (scFv) scFv: DIQMTQSPSSLSASVGDRVTITCRASQDVNTAVAWYQQKPGKAPKLLIYSASFLYSGVPSRFSGSRSGTDFTLTISSLQPEDFATYYCQQYSYDPITFGQGTKVEIKRTGGGSGGGGSGGGASEVQLVESGGGLVQPGGSLRLSCAASGFNFSYSAMHWVRQAPGKGLEWVADVVPDGDWTYYADSVKGRFTISADTSKNTAYLQMNSLRAEDTAVYYCSRGWYALDYWGQGTLVTVSS |  | no binding | 
8 | H/R/N RAS Q61R_A1_cl5 (scFv) scFv: DIQMTQSPSSLSASVGDRVTITCRASQDVNTAVAWYQQKPGKAPKLLIYSASFLYSGVPSRFSGSRSGTDFTLTISSLQPEDFATYYCQQYYLYQPITFGQGTKVEIKRTGGGSGGGGSGGGASEVQLVESGGGLVQPGGSLRLSCAASGFNIGMYTMHWVRQAPGKGLEWVALVYPDSGYTNYADSVKGRFTISADTSKNTAYLQMNSLRAEDTAVYYCSRYTWQSMDYWGQGTLVTVSS |  | no binding | 
9 | H/R/N RAS Q61R_A1_cl1 (scFv, also called H/K/N RAS Q61R(55-64)-A1 cl.1) scFv: DIQMTQSPSSLSASVGDRVTITCRASQDVNTAVAWYQQKPGKAPKLLIYSASFLYSGVPSRFSGSRSGTDFTLTISSLQPEDFATYYCQQSYTSPLTFGQGTKVEIKRTGGGSGGGGSGGGASEVQLVESGGGLVQPGGSLRLSCAASGFNIYYGVMHWVRQAPGKGLEWVAMIYPDSSWTYYADSVKGRFTISADTSKNTAYLQMNSLRAEDTAVYYCSRDQDFHYMNYYLSYALDYWGQGTLVTVSS |  | no binding | 
10 | H/K/N RAS Q61H_A1_cl5 (scFv) scFv: DIQMTQSPSSLSASVGDRVTITCRASQDVNTAVAWYQQKPGKAPKLLIYSASFLYSGVPSRFSGSRSGTDFTLTISSLQPEDFATYYCQQSSYSPWTFGQGTKVEIKRTGGGSGGGGSGGGASEVQLVESGGGLVQPGGSLRLSCAASGFNISPWDMHWVRQAPGKGLEWVAQLYPSSGYTNYADSVKGRFTISADTSKNTAYLQMNSLRAEDTAVYYCSRSVYWSLDYWGQGTLVTVSS |  |  | binding result (RAS Q61WT[55-64] pHLA-A1 [3]): no binding
11 | H/K/N RAS Q61L_A1_cl1 (scFv) scFv: DIQMTQSPSSLSASVGDRVTITCRASQDVNTAVAWYQQKPGKAPKLLIYSASFLYSGVPSRFSGSRSGTDFTLTISSLQPEDFATYYCQQASRQPYTFGQGTKVEIKRTGGGSGGGGSGGGASEVQLVESGGGLVQPGGSLRLSCAASGFNFSESGMHWVRQAPGKGLEWVAHFSGDSGYTYYADSVKGRFTISADTSKNTAYLQMNSLRAEDTAVYYCSRYMYYSGYFDYWGQGTLVTVSS | no binding |  | 
12 | H/K/N RAS Q61L_A1_cl4 (scFv) scFv: DIQMTQSPSSLSASVGDRVTITCRASQDVNTAVAWYQQKPGKAPKLLIYSASFLYSGVPSRFSGSRSGTDFTLTISSLQPEDFATYYCQQSWYSPSTFGQGTKVEIKRTGGGSGGGGSGGGASEVQLVESGGGLVQPGGSLRLSCAASGFNISASGMHWVRQAPGKGLEWVAWIWGGSSYTYYADSVKGRFTISADTSKNTAYLQMNSLRAEDTAVYYCSRGQYLSYMDYWGQGTLVTVSS | no binding |  | 
13 | H/K/N RAS Q61H_A1_cl8 (scFv) scFv: DIQMTQSPSSLSASVGDRVTITCRASQDVNTAVAWYQQKPGKAPKLLIYSASFLYSGVPSRFSGSRSGTDFTLTISSLQPEDFATYYCQQSFSTPITFGQGTKVEIKRTGGGSGGGGSGGGASEVQLVESGGGLVQPGGSLRLSCAASGFNISEYLMHWVRQAPGKGLEWVALLPPGLSYTNYADSVKGRFTISADTSKNTAYLQMNSLRAEDTAVYYCSRYGYYAFDYWGQGTLVTVSS |  |  | binding result (RAS Q61WT[55-64] pHLA-A1 [3]): no binding
14 | H/K/N RAS Q61L_A1_cl9 (scFv) scFv: DIQMTQSPSSLSASVGDRVTITCRASQDVNTAVAWYQQKPGKAPKLLIYSASFLYSGVPSRFSGSRSGTDFTLTISSLQPEDFATYYCQQTYYYPFTFGQGTKVEIKRTGGGSGGGGSGGGASEVQLVESGGGLVQPGGSLRLSCAASGFNLYAWGMHWVRQAPGKGLEWVALVYGGWGSTSYADSVKGRFTISADTSKNTAYLQMNSLRAEDTAVYYCSRAGSSKMSAGAFDYWGQGTLVTVSS | no binding |  | 
15 | H/K/N RAS Q61L_A1_cl10 (scFv) scFv: DIQMTQSPSSLSASVGDRVTITCRASQDVNTAVAWYQQKPGKAPKLLIYSASFLYSGVPSRFSGSRSGTDFTLTISSLQPEDFATYYCQQSYYPYYPWTFGQGTKVEIKRTGGGSGGGGSGGGASEVQLVESGGGLVQPGGSLRLSCAASGFNVSHSAMHWVRQAPGKGLEWVATVHPDWGNTYYADSVKGRFTISADTSKNTAYLQMNSLRAEDTAVYYCSRWQQYYYSFDYWGQGTLVTVSS | no binding |  | 
16 | H/R/N RAS Q61R_A1_cl19 (scFv) scFv: DIQMTQSPSSLSASVGDRVTITCRASQDVNTAVAWYQQKPGKAPKLLIYSASFLYSGVPSRFSGSRSGTDFTLTISSLQPEDFATYYCQQLMYDPITFGQGTKVEIKRTGGGSGGGGSGGGASEVQLVESGGGLVQPGGSLRLSCAASGFNFGTYWMHWVRQAPGKGLEWVAWFLPDYDYTLYADSVKGRFTISADTSKNTAYLQMNSLRAEDTAVYYCSRHGEYAFDYWGQGTLVTVSS |  | no binding | 
17 | H/K/N RAS Q61L_A1_cl11 (scFv) scFv: DIQMTQSPSSLSASVGDRVTITCRASQDVNTAVAWYQQKPGKAPKLLIYSASFLYSGVPSRFSGSRSGTDFTLTISSLQPEDFATYYCQQYDRPITFGQGTKVEIKRTGGGSGGGGSGGGASEVQLVESGGGLVQPGGSLRLSCAASGFNIYYEAMHWVRQAPGKGLEWVAQIYPWNDYTYYADSVKGRFTISADTSKNTAYLQMNSLRAEDTAVYYCSRNYYAATMDYWGQGTLVTVSS | no binding |  | 
18 | H/R/N RAS Q61R_A1_cl7 (scFv) scFv: DIQMTQSPSSLSASVGDRVTITCRASQDVNTAVAWYQQKPGKAPKLLIYSASFLYSGVPSRFSGSRSGTDFTLTISSLQPEDFATYYCQQYASDPITFGQGTKVEIKRTGGGSGGGGSGGGASEVQLVESGGGLVQPGGSLRLSCAASGFNLDYGWMHWVRQAPGKGLEWVAWVVPGSDYTDYADSVKGRFTISADTSKNTAYLQMNSLRAEDTAVYYCSRFHYTAFDVWGQGTLVTVSS |  | no binding | 
19 | H/R/N RAS Q61R_A1_cl18 (scFv) scFv: DIQMTQSPSSLSASVGDRVTITCRASQDVNTAVAWYQQKPGKAPKLLIYSASFLYSGVPSRFSGSRSGTDFTLTISSLQPEDFATYYCQQYIYDPVTFGQGTKVEIKRTGGGSGGGGSGGGASEVQLVESGGGLVQPGGSLRLSCAASGFNVDWAWMHWVRQAPGKGLEWVAWVVGGSDYTYYADSVKGRFTISADTSKNTAYLQMNSLRAEDTAVYYCSRSYYYAFDYWGQGTLVTVSS |  | no binding | 
20 | H/K/N RAS Q61L_A1_cl3 (scFv) scFv: DIQMTQSPSSLSASVGDRVTITCRASQDVNTAVAWYQQKPGKAPKLLIYSASFLYSGVPSRFSGSRSGTDFTLTISSLQPEDFATYYCQQTSSYPITFGQGTKVEIKRTGGGSGGGGSGGGASEVQLVESGGGLVQPGGSLRLSCAASGFNIYWYGMHWVRQAPGKGLEWVAQVYPWSGFTYYADSVKGRFTISADTSKNTAYLQMNSLRAEDTAVYYCSRDYYSYSLDYWGQGTLVTVSS | no binding |  | 

— patent publication US20230051847A1 (Johns Hopkins, published 2023)
